We go through six molecules from paper PMC8897274 (Structure (London, England : 1993), 2021).

To fix the notation:
B1: DNA ligase from S. solfataricus (Lig), wild type (enzyme)
chain: MEFKVIAEYFDKLEKISSRLQLTALLADLLSKSDKTIIDKVVYIIQGKLWPDFLGYPELGIGEKFLIKAISIATNTDENSVENLYKTIGDLGEVARRLKSKQQSTGILGFLGTTSKESLTVDEVYSTLSKVALTTGEGSRDLKIRLLAGLLKKADPLEAKFLVRFVEGRLRVGIGDATVLDAMAIAFGGGQSASEIIERAYNLRADLGNIAKIIVEKGIEALKTLKPQVGIPIRPMLAERLSNPEEILKKMGGNAIVDYKYDGERAQIHKKEDKIFIFSRRLENITSQYPDVVDYVSKYIEGKEFIIEGEIVAIDPESGEMRPFQELMHRKRKSDIYEAIKEYPVNVFLFDLMYYEDVDYTTKPLEARRKLLESIVKPNDYVKIAHHIQANNVEDLKSFFYRAISEGGEGVMVKAIGKDAIYQAGARGWLWIKLKRDYQSEMADTVDLVVVGGFYGKGKRGGKISSLLMAAYNPKTDSFESVCKVASGFSDEQLDELQKKLMEIKRDVKHPRVNSKMEPDIWVEPVYVAEIIGSEITISPLHTCCQDVVEKDAGLSIRFPRFIRWRDDKSPEDATTTDEILEMYNKQPKKKIESPAVDESV

The target of test [1] is T1, PCNA_(1–2-3) heterotrimer of S. solfataricus (S. solfataricus, UniProt P57766 1-249; Q97Z84 1-245; P57765 1-244).
T1 sequence 1: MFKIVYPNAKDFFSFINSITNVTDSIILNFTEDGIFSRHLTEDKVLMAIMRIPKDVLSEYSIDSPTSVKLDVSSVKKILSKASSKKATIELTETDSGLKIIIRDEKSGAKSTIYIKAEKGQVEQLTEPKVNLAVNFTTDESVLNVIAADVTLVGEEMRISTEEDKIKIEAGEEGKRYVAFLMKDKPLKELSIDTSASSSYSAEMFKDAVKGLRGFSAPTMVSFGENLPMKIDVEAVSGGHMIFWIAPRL
T1 sequence 2: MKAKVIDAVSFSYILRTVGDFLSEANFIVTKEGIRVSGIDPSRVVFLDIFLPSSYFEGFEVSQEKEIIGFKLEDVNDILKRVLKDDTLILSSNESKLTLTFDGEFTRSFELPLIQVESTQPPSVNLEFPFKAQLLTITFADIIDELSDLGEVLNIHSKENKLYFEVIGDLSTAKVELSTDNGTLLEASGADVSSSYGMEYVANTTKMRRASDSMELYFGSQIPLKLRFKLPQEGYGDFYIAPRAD
T1 sequence 3: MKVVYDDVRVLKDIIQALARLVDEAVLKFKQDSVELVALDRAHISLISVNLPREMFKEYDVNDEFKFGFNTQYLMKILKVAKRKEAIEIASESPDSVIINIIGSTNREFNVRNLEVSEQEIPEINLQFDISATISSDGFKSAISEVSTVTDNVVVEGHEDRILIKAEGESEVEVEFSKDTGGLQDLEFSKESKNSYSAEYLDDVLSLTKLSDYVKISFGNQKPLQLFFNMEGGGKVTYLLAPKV
In words: SEC-MALS.

Test [2] concerns the target T2, PCNA heterotrimer containing PCNA2 S42C (S. solfataricus, UniProt P57766 1-249; Q97Z84 1-245; P57765 1-244, S42C).
T2 sequence 1: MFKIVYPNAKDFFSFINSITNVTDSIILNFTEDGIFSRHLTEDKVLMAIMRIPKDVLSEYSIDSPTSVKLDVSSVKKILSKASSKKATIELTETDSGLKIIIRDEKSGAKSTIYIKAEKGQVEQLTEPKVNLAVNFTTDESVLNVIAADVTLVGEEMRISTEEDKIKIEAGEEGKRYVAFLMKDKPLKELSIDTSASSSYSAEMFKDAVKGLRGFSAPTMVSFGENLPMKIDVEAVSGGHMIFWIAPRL
T2 sequence 2: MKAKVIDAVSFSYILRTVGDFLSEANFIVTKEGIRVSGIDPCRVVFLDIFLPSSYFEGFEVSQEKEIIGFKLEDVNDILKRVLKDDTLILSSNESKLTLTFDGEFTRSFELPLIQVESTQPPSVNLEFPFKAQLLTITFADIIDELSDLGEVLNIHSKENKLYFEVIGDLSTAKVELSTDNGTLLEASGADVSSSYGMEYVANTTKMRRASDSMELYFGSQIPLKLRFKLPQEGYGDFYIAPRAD
T2 sequence 3: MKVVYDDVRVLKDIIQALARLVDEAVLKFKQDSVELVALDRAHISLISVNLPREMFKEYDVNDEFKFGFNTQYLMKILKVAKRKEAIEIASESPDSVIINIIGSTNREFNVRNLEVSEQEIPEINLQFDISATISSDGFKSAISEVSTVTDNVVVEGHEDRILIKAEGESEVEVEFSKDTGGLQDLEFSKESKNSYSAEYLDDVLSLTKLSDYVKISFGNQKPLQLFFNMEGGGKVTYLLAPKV
In words: cross-linking.

Test [3] concerns the target B1. In words: negative stain electron microscopy.
For test [4], the target named is T3, PCNA1 subunit of S. solfataricus PCNA (S. solfataricus, UniProt P57766 1-249).
T3 sequence: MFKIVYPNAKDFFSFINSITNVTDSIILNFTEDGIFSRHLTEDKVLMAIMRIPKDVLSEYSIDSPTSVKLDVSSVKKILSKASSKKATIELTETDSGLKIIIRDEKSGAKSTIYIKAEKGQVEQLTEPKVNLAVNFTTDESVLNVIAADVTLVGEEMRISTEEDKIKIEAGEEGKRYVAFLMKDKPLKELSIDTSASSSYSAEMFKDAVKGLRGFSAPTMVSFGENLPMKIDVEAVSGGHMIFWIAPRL
Description: cryo-EM structure.

Test [5] deals with T1, PCNA_(1–2-3) heterotrimer of S. …. Description: SEC. A general note: In gel filtration, larger molecules generally elute earlier.

What is called stoichiometry N is a count of units in the complex or per binding partner. Take B1: in test [1], the “stoichiometry N” value is 1.

B2: Lig 337 Y-C mutant (enzyme, S. solfataricus)
chain: MEFKVIAEYFDKLEKISSRLQLTALLADLLSKSDKTIIDKVVYIIQGKLWPDFLGYPELGIGEKFLIKAISIATNTDENSVENLYKTIGDLGEVARRLKSKQQSTGILGFLGTTSKESLTVDEVYSTLSKVALTTGEGSRDLKIRLLAGLLKKADPLEAKFLVRFVEGRLRVGIGDATVLDAMAIAFGGGQSASEIIERAYNLRADLGNIAKIIVEKGIEALKTLKPQVGIPIRPMLAERLSNPEEILKKMGGNAIVDYKYDGERAQIHKKEDKIFIFSRRLENITSQYPDVVDYVSKYIEGKEFIIEGEIVAIDPESGEMRPFQELMHRKRKSDICEAIKEYPVNVFLFDLMYYEDVDYTTKPLEARRKLLESIVKPNDYVKIAHHIQANNVEDLKSFFYRAISEGGEGVMVKAIGKDAIYQAGARGWLWIKLKRDYQSEMADTVDLVVVGGFYGKGKRGGKISSLLMAAYNPKTDSFESVCKVASGFSDEQLDELQKKLMEIKRDVKHPRVNSKMEPDIWVEPVYVAEIIGSEITISPLHTCCQDVVEKDAGLSIRFPRFIRWRDDKSPEDATTTDEILEMYNKQPKKKIESPAVDESV
Regarding B2, in test [2], the binding result is recorded as “binds”.

B3: PCNA2 subunit of S. solfataricus PCNA (natural protein)
chain: MKAKVIDAVSFSYILRTVGDFLSEANFIVTKEGIRVSGIDPSRVVFLDIFLPSSYFEGFEVSQEKEIIGFKLEDVNDILKRVLKDDTLILSSNESKLTLTFDGEFTRSFELPLIQVESTQPPSVNLEFPFKAQLLTITFADIIDELSDLGEVLNIHSKENKLYFEVIGDLSTAKVELSTDNGTLLEASGADVSSSYGMEYVANTTKMRRASDSMELYFGSQIPLKLRFKLPQEGYGDFYIAPRAD
As for B3, the binding result in test [3] and in test [4] was “binds” in each case.

B4: Lig 338 E-C mutant (enzyme, S. solfataricus)
chain: MEFKVIAEYFDKLEKISSRLQLTALLADLLSKSDKTIIDKVVYIIQGKLWPDFLGYPELGIGEKFLIKAISIATNTDENSVENLYKTIGDLGEVARRLKSKQQSTGILGFLGTTSKESLTVDEVYSTLSKVALTTGEGSRDLKIRLLAGLLKKADPLEAKFLVRFVEGRLRVGIGDATVLDAMAIAFGGGQSASEIIERAYNLRADLGNIAKIIVEKGIEALKTLKPQVGIPIRPMLAERLSNPEEILKKMGGNAIVDYKYDGERAQIHKKEDKIFIFSRRLENITSQYPDVVDYVSKYIEGKEFIIEGEIVAIDPESGEMRPFQELMHRKRKSDIYCAIKEYPVNVFLFDLMYYEDVDYTTKPLEARRKLLESIVKPNDYVKIAHHIQANNVEDLKSFFYRAISEGGEGVMVKAIGKDAIYQAGARGWLWIKLKRDYQSEMADTVDLVVVGGFYGKGKRGGKISSLLMAAYNPKTDSFESVCKVASGFSDEQLDELQKKLMEIKRDVKHPRVNSKMEPDIWVEPVYVAEIIGSEITISPLHTCCQDVVEKDAGLSIRFPRFIRWRDDKSPEDATTTDEILEMYNKQPKKKIESPAVDESV
For B4, in test [2], the binding result is reported as “binds”.

B5: Lig 145 R-D mutant (enzyme, S. solfataricus)
chain: MEFKVIAEYFDKLEKISSRLQLTALLADLLSKSDKTIIDKVVYIIQGKLWPDFLGYPELGIGEKFLIKAISIATNTDENSVENLYKTIGDLGEVARRLKSKQQSTGILGFLGTTSKESLTVDEVYSTLSKVALTTGEGSRDLKIDLLAGLLKKADPLEAKFLVRFVEGRLRVGIGDATVLDAMAIAFGGGQSASEIIERAYNLRADLGNIAKIIVEKGIEALKTLKPQVGIPIRPMLAERLSNPEEILKKMGGNAIVDYKYDGERAQIHKKEDKIFIFSRRLENITSQYPDVVDYVSKYIEGKEFIIEGEIVAIDPESGEMRPFQELMHRKRKSDIYEAIKEYPVNVFLFDLMYYEDVDYTTKPLEARRKLLESIVKPNDYVKIAHHIQANNVEDLKSFFYRAISEGGEGVMVKAIGKDAIYQAGARGWLWIKLKRDYQSEMADTVDLVVVGGFYGKGKRGGKISSLLMAAYNPKTDSFESVCKVASGFSDEQLDELQKKLMEIKRDVKHPRVNSKMEPDIWVEPVYVAEIIGSEITISPLHTCCQDVVEKDAGLSIRFPRFIRWRDDKSPEDATTTDEILEMYNKQPKKKIESPAVDESV
B5: the binding result in test [5] is given as “binds”.

B6: Lig 145 R-L mutant (enzyme, S. solfataricus)
chain: MEFKVIAEYFDKLEKISSRLQLTALLADLLSKSDKTIIDKVVYIIQGKLWPDFLGYPELGIGEKFLIKAISIATNTDENSVENLYKTIGDLGEVARRLKSKQQSTGILGFLGTTSKESLTVDEVYSTLSKVALTTGEGSRDLKILLLAGLLKKADPLEAKFLVRFVEGRLRVGIGDATVLDAMAIAFGGGQSASEIIERAYNLRADLGNIAKIIVEKGIEALKTLKPQVGIPIRPMLAERLSNPEEILKKMGGNAIVDYKYDGERAQIHKKEDKIFIFSRRLENITSQYPDVVDYVSKYIEGKEFIIEGEIVAIDPESGEMRPFQELMHRKRKSDIYEAIKEYPVNVFLFDLMYYEDVDYTTKPLEARRKLLESIVKPNDYVKIAHHIQANNVEDLKSFFYRAISEGGEGVMVKAIGKDAIYQAGARGWLWIKLKRDYQSEMADTVDLVVVGGFYGKGKRGGKISSLLMAAYNPKTDSFESVCKVASGFSDEQLDELQKKLMEIKRDVKHPRVNSKMEPDIWVEPVYVAEIIGSEITISPLHTCCQDVVEKDAGLSIRFPRFIRWRDDKSPEDATTTDEILEMYNKQPKKKIESPAVDESV
As for B6, the binding result in test [5] is “binds”.
